Assay results taken from patent US20060247420A1, “Immune cell recptor ligand and immune cell receptor” (priority 2002, published 2006).

Key:
Assay type in all cases: cell-based, human
[1] = tested on: peripheral CD8^+ T-cells; assay: CD8+ lymphocyte proliferation/expansion with K32 aAPCs ([3H] thymidine); details: K32 aAPCs, 2 to 5 days
Excerpt: (§1) CD8^+ lymphocyte stimulation and cytokine release. To analyze the effects of Letal on the T-cell proliferation and production of cytokines, a previously described artificial antigen-presenting cell (aAPC) model was used (Maus et al, Nat. Biotechnol. 20(2):143-148 (2002)). Briefly, the system is based on the stable expression of the human low-affinity Fcγ receptor, CD32, on K562 cells (K32 cell line). K32 cell-based aAPCs were additionally transduced with Letal or with the empty vector as described above, irradiated with 100Gy, and washed twice with RPMI medium. Letal^+-K32 cells or mock transductants were loaded, when indicated, with anti-CD3 (OKT3), or anti-CD3 plus anti-CD28 (mAbs; 9.3) monoclonal antibodies at 0.5 μg/ml for 10 min at room temperature. Loaded &APCs were mixed with CD8^+ T-cells at a 1:2 ratio and the T-cell concentration was maintained at 0.5×10^6 cells/ml throughout the culture. Cultures were pulsed with 1 μCi of [^3H] thymidine from day 2 to day 5 and incorporated radioactivity was determined using a 1450 Microbeta scintillation counter (Wallac, Turku, Finland). The amounts of secreted IL-2 and IFNγ were determined by commercial ELISA, following the manufacturer's instructions (R & D Systems). Flow cytometry was performed with a FACScalibur (BD Biosciences, San Jose, Calif.). […]

[2] = tested on: NKG2D on peripheral CD8^+ T-cells; assay: NKG2D expression on CD8+ lymphocytes after co-culture with K32 aAPCs, flow cytometry; details: peripheral CD8^+ T-cells co-cultured 4 days with K32 aAPCs; versus mock-transduced K32
Excerpt: as §1

[3] = tested on: Fas on peripheral CD8^+ T-cells; assay: Fas expression on stimulated CD8+ T-cells, flow cytometry; details: 4 days stimulation
Method: Apoptosis assay. The percentage of apoptotic cells was determined after 17 h incubation with 50 μM cisplatin or 18 hs exposure to 0.1 μg/ml anti-CD95 mAb (EOS9.1; Pharmingen) by using the TACS annexin-V apoptosis detection kit, according to the manufacturer's instructions (R & D Systems). Fas expression was determined by flow cytometry by using EOS9.1 as a primary Ab and a PE-labeled anti-mouse IgM (R6-60.2; Pharmingen) as a second Ab.
Letal engagement protects CD8^+ T-cells from FasL-induced apoptosis. […] Because ovarian carcinomas express FasL and other lymphocyte-depleting death ligands (Rabinowich et al, J. Clin. Invest. 101:2579-2588 (1998)), the prevalence of FasL expression and its impact on TILs was determined in 42 stage III ovarian carcinoma specimens. Strong FasL immunoreactivity was detected in tumor cells in areas of selected specimens (FIG. 10A), as well as in a proportion of stromal leukocytes. To test whether Letal promotes the generation of activated T-cell subpopulations that are able to resist the pro-apoptotic tumor microenvironment, peripheral CD8^+ T-cells were stimulated for 4 days with CD3/Letal, CD3/CD28, or anti-CD3 alone, and expression of Fas was measured by flow cytometry. […]

B1: Letal: MHC-I related transmembrane ligand for the NKG2D receptor, polypeptide of SEQ ID NO:8; tested as expressed on transduced cells (protein)
chain: GGHSLCFNFTIKSLSRPGQPWCEAQVFLNKNLFLQYNSDNNMVKPLGLLGKKVYATSTWGELTQTLGEVGRDLRMLLCDIKPQIKTSDPSTLQVEMFCQREAERCTGASWQFATNGEKSLLFDAMNMTWTVINHEASKIKETWKKDRGLEKYFRKLSKGDCDHWLREFLGHWEAMPEPTVSPVNASDIHWSSSSLPDRWIILGAFILLVLMGIVLICVWWQNGEWQAGLWPLRTS
For B1, the “proliferation / activation of CD8^+ cells” value [1] was “No activation”, the “increase of NKG2D expression” value [2] was 2 fold and the “T-cells with dramatically reduced Fas expression compared to controls” value [3] was 60%.
